Tests used:
DsRmCh [1] = target: DsRmCh (UniProt Q9U6Y8); experiment: SEC; Superdex 75 10/300, 100 μl of purified protein, absorbance at 575 nm
DsRmCh [2] = target: DsRmCh (UniProt Q9U6Y8); experiment: AUC; sedimentation velocity, 40,000 RPM overnight, PBS pH 7.4, sample diluted to A575 of 0.5, c(m) distribution in Sedfit
DsRmChΔ5 = DsRmChΔ5 (UniProt Q9U6Y8); experiment: as above

| stoichiometry N (DsRmCh [1]) | stoichiometry N (DsRmCh [2]) | stoichiometry N (DsRmChΔ5) | Substance |
| --- | --- | --- | --- |
| 4 | 4 |  | DsRmCh (from UniProt Q9U6Y8 1-225) |
|  |  | 4 | DsRmChΔ5 (from UniProt Q9U6Y8 1-220) |

Reference: article PMC4468108
